B1: 2K2A (parent)
chain: ELREAFRLYDKEGNGYISTDVMREILAELDETLSSEDLDAMIDEIDADGSGTVDFEEFMGVMT

Variants of: B1
Test: folding stability dG (cDNA display proteolysis); higher = more stable
Settings: PBS, room temperature

Folding stability dG [kcal/mol]: each site, then its substitutions
M22: C 0.958 | Y 0.295 | W 0.847 | I 1.46 | A 0.924 | L 1.97 | F 1.65 | T 0.155 | V 1.4 | D -0.77 | H -0.985
Y16: A 0.729 | S 1.03 | I 0.893 | V 1.1 | C 0.627 | G -0.095 | W 2.34 | T 1.05 | H 1.21 | R 1.15 | D -0.18 | P -0.96 | K 1.19 | Q 1.03 | M 0.8 | F 1.89 | L 0.96 | N 0.623 | E 0.315
S18: L 1.41 | R 1.59 | P 1.58 | E 0.834 | I 0.865 | C 1.29 | K 1.24 | A 1.42 | M 1.25 | T 2.02 | D 0.936 | W 0.742 | N 1.16 | G 1.52 | F 1.15 | Q 1.01 | H 1.54 | Y 1.32 | V 0.765
T19: C 1.39 | Q 0.688 | G 0.526 | S 1.23 | I 2.29 | W 1.4 | P 0.762 | L 2.27 | E 0.025 | F 2.18 | A 1.32 | D 0.211 | K 1.67 | M 1.91 | H 1.01 | V 2.04 | R 1.86 | Y 2.03 | N 1.73
L33: V 0.861 | G -0.126 | Y 1.43 | F 1.34 | D -0.084 | C 1.07 | R 1.36 | E -0.382 | M 1.41 | Q 0.501 | N 0.113 | A 1.02 | P -0.18 | H 0.717 | I 1.36 | K 0.956 | W 1.83 | S 0.411 | T 0.695
D20: C 1.9 | K 2.4 | L 2.35 | Q 2.33 | S 2.26 | I 2.03 | A 2.28 | Y 1.66 | F 1.89 | H 2.05 | N 2.04 | R 2.23 | V 2.14 | W 1.99 | M 2.25 | E 2.16 | T 2.25 | P 1.15 | G 1.89
R23: K 1.69 | L 0.522 | F 0.124 | A 0.182 | T -0.478 | Q -0.482 | Y 0.595 | I 0.365 | C 0.094 | G -0.378 | S -0.561 | M 0.457 | H -0.034 | W 0.731 | V -0.067
S34: Y 0.751 | W 0.76 | G 1.26 | V 1.02 | T 2.12 | F 0.67 | C 1.2 | H 0.919 | I 0.894 | A 1.26 | N 1.58 | R 1.47 | K 1.45 | M 1.27 | P 0.476 | Q 1.18 | E 1.05 | L 1.21 | D 1.3
G15: P 0.347 | T 0.259 | Y 0.571 | Q 0.45 | N 0.741 | W 0.821 | S 0.464 | L 0.841 | R 0.333 | M 0.662 | V 0.459
E24: G 2.08 | D 1.77 | Q 2.48 | H 2.14 | T 2.22 | M 2.52 | V 2.23 | L 2.55 | W 2.31 | P -0.167 | A 2.35 | N 2.19 | Y 2.2 | I 2.29 | R 2.58 | C 2.6 | S 2.3 | K 2.6 | F 2.32
A27: Y 1.75 | V 1.59 | M 2.03 | R 2.25 | P -0.602 | N 1.24 | L 2.06 | K 2.21 | D 0.222 | T 1.6 | W 1.73 | G 1.47 | F 1.73 | I 1.87 | H 1.94 | Q 1.93 | E 1.12 | S 1.87 | C 1.47
E28: A 2.46 | I 1.85 | Q 2.24 | V 1.76 | P -0.155 | H 2.2 | D 1.78 | T 2.03 | S 2.34 | F 1.77 | G 2.28 | K 2.52 | L 2.25 | C 2.33 | W 1.89 | Y 1.83 | M 2.28 | R 2.59 | N 2.22
I25: Q -0.758 | Y 0.879 | K 0.177 | C 0.786 | A 0.872 | V 1.31 | F 1.53 | M 1.31 | H -0.033 | L 1.82 | T -0.61 | R 0 | W 0.943
I17: T -0.998 | S -0.963 | R -0.847 | V 1.22 | K -0.854 | C 0.277 | F 0.818 | Y -0.493 | M 0.435 | L 1.36 | W 0.006
T32: H 1.8 | A 1.5 | D 1.42 | Q 1.57 | P 0.441 | Y 1.54 | M 1.52 | S 1.99 | C 1.73 | K 1.79 | E 1.48 | W 1.62 | V 0.877 | N 1.86 | R 1.74 | G 1.67 | F 1.62 | L 1.46 | I 0.878
D30: T 1.3 | M 1.95 | S 1.4 | A 1.28 | L 1.93 | E 0.964 | K 1.45 | Q 1.38 | C 1.97 | R 1.72 | F 2.19 | V 1.55 | N 2.1 | P 0.553 | H 2.08 | W 2.22 | Y 2.36 | I 1.81 | G 1.13
L26: Y 0.295 | W 0.837 | A 0.083 | F 1.04 | R -0.879 | V 0.555 | I 1.45 | M 1.27 | C 0.479
E31: C 1.92 | Q 2.2 | F 1.89 | G 2.17 | R 2.41 | H 2.26 | W 1.98 | Y 2.01 | S 2.28 | K 2.34 | L 2 | N 2.15 | D 1.97 | A 2.24 | P 2.61 | M 2.02 | I 1.93 | V 2.01 | T 2.12
V21: F 1.41 | I 2.02 | L 2.19 | H 1.77 | Y 1.61 | Q 2.36 | D 1.95 | S 1.94 | K 2.04 | A 2.17 | T 1.92 | W 1.09 | G 0.967 | E 1.56 | C 2 | N 1.74 | R 1.88 | M 2.06
L29: V 1.28 | D 0.372 | I 1.64 | K 1.52 | C 2.18 | M 2.15 | H 1.73 | Y 1.92 | Q 1.49 | N 1.34 | S 1.32 | A 1.52 | R 2.12 | T 1.15 | G 0.955 | W 2.15 | F 1.91 | E 0.559
